# From the nanobody polyreactivity screen of Harvey et al. (2022)
# Assay: yeast display, Sf9 membrane polyspecificity reagent, FACS + sequencing; frameworks hold sequencing errors
# Method in brief: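 Polyreactivity labels are assigned by the sorting gate from which each nanobody was recovered. The gates were low and high (top ~1%), set on anti-HA fluorescence for expression and streptavidin fluorescence for reagent binding. Before sorting, galactose-induced (36–48 hours) yeast display cells were stained for 1 hour at 4 °C with 10% biotinylated, detergent-solubilized Sf9 membrane reagent.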
row,Sequence,polyreactivity (PSR sort gate)
1,QVQLVESGGGLVQAGGSLRLSCAASGRTFRVYAMGWYRQAPGKERELVAAISWSGGTTYYADSVKGRFTISRDNAKNTVYLQMNSLKPEDSAVYYCARRSRGSSYNYWGQGTQVTVSS,high polyreactivity
2,QVQLVESGGGLVQAGGSLRLSCAASGRTFRVYAMGWYRQAPGKERELVAAITFNGGSTYYADSVKGRFTISRDNAKNTVYLQMNSLKPEDTAVYYCAAATRRSYDHVQMYYWGQGTQVTVSS,high polyreactivity
3,QVQLVESGGGLVQAGGSLRLSCAASGRTFRVYVMGWYRQAPGKERELVAAISKSGTSTYYADSVKGRFTISRDNAKNTVYLQMNSLKPEDTAVYYCAAALPGYGDYYYWGQGTQVTVSS,high polyreactivity
4,QVQLVESGGGLVQAGGSLRLSCAASGRTFRWNAIGWYRQAPGKERELVASISSGGRTNYADSVKVRFTISRDNEKNTVYLQMNSLKPEDTAVYYCAKRVSWPQLYDYWGQGTQVTVSS,high polyreactivity
5,QVQLVESGGGLVQAGGSLRLSCAASGRTFRWYAMGWYIQAPGKERELVAAITSGGSTYYADSVKGRFTISRDNAKNTVYLQMNSLKPEDTAVYYCNAVSTSGAFDYWGQGTQVTVSS,high polyreactivity
6,QVQLVESGGGLVQAGGSLRLSCAASGRTFRWYAMGWYRQAPGKERELLASITWSGGSTYYADSVKGRFTISRDNAKNTVYLQMNSLKPEDTAVYYCAAVGRQSNYYVDYDYWGQGTQVTVSS,high polyreactivity
7,QVQLVESGGGLVQAGGSLRLSCAASGRTFRWYAMGWYRQAPGKERELVAAITGGGRTYYADSVKGSFTISRDYAKNTVYLQMNSLKPEDTAVYYCNKYPSSGNYINAYDYWGQGTQVTVSS,high polyreactivity
8,QVQLVESGGGLVQAGGSLRLSCAASGRTFRWYAMGWYRQAPGKERELVARITYSGGSTYYADSVKGRFTISRDNAKNTVYLQMNSLKPEDTAVYYCAAKRYTGSSSIYYYWGQGTQVTVSS,high polyreactivity
9,QVQLVESGGGLVQAGGSLRLSCAASGRTFRWYAMGWYRQAPGKERELVATITSGGSTNYADSVKGRFTISRDNAKNTVYLQMNSLKPEDTAVYYCAAWSYAYYYRLRYVSHDYWGQGTQVTVSS,high polyreactivity
10,QVQLVESGGGLVQAGGSLRLSCAASGRTFRWYGMGWYRQAPGKEREFVAAISFRGGTTYYADSVKGRFTISRDNAKNTVYLQMNSLKPEDTAVYYCAARYGYYTSDYKYYYWGQGTQVTVSS,high polyreactivity
11,QVQLVESGGGLVQAGGSLRLSCAASGRTFRWYPMGWYRHAPGKEREFVARITWSGGRTYYADSVKGRFTISRDNAKNTVYLQMNSLKPEDTADYYCAAYFVGRYRLEYWGQGTQVTVSS,high polyreactivity
12,QVQLVESGGGLVQAGGSLRLSCAASGRTFRYHAMGWYRQAPGKERELVAGISWSGTSTYYADSVKGRFTISRDNAKNTVYLQMNSLKPEDTAVYYCNAVFRYRYDYWGQGTQVTVSS,high polyreactivity
13,QVQLVESGGGLVQAGGSLRLSCAASGRTFRYNALGWYRQAPGTERELVAAISRGTITNYAASVKGRFTISRDNAKNPVYFQLTSLKPEDTAVYYCNAGWGVVIRRYPTYHYWGQGTQVTVSS,high polyreactivity
14,QVQLVESGGGLVQAGGSLRLSCAASGRTFRYNAMGWYRQAPGKERELVAAISSGDRTNYADSVKGRFTISRDNAKNTVYLQMNSLKPEDTAVYYCAAPTDSYYEFDYWGQGTQVTVSS,low polyreactivity
15,QVQLVESGGGLVQAGGSLRLSCAASGRTFRYNAMGWYRQAPGKERELVAAITQSGGSTYYADSVKGRFTISRDNAKNTVYLQMNSLKPEDTAVYYCAKVRERINYDYWGQGTQVTVSS,low polyreactivity
16,QVQLVESGGGLVQAGGSLRLSCAASGRTFRYNAMGWYRQAPGKERELVASITSGGSTNYADSVKGRFTISRDNAKNTVYLQMNSLKPEDTAVYYCAADERRPYWLHSIGSGRPFDYWGQGTQVTVSS,low polyreactivity
17,QVQLVESGGGLVQAGGSLRLSCAASGRTFRYNRMGWYRQAPGKERELVAAITGGGSTYYADSVKGRFTISRDNAKNTVYLQMNSLKPEDTPVYYCAKRRWYRYDYWGQGTQVTVSS,high polyreactivity
18,QVQLVESGGGLVQAGGSLRLSCAASGRTFRYNTMGWYRQAPGKERELVARINWSGGSTYYADSVKGRFTISRDNAKNTVYLQMNSLKPEDTAVYYCAAVPILVYRWFQSYTGDYDYWGQGTQVTVSS,low polyreactivity
19,QVQLVESGGGLVQAGGSLRLSCAASGRTFRYNTMGWYRQAPGTERELVATITGSGGSTYYADSVKGRFTISRDNAKNTVYLQMNSLKPEDTAVYYCNALFRLRAYAEMDYWGQGTQVTVSS,high polyreactivity
20,QVQLVESGGGLVQAGGSLRLSCAASGRTFRYYAMGWYRPAPGKERELVATITGSGGSTYYADSVKGRFTISRDNAKNTVYLQMNSLKPEDTAVYDCNARKVRYPYRWYVYWGQGTQVTVSS,high polyreactivity
21,QVQLVESGGGLVQAGGSLRLSCAASGRTFRYYAMGWYRQAPAKERELVAAINWNGGRTYYADSVKGRFTISRDNAKNTVYLQMNSLKPEDTAVYYCAAYHYRSPVTGDYWGQGTQVTVSS,high polyreactivity
22,QVQLVESGGGLVQAGGSLRLSCAASGRTFRYYAMGWYRQAPGKERELVAAISWNGANTYYADSVKGRFTISRDNAKNTVYLQMNSLKPEDTAVYYCAATYYRWKGYDYWGQGTQVTVSS,high polyreactivity

row,Sequence,polyreactivity (PSR sort gate)
1,QVQLVESGGGLVQAGGSLRLSCAASGRTFRYYAMGWYRQAPGKERELVAAITSNGGSTYYADSVKGRFTISRDNAKNTVYLQMNSLKPEDTAVYYCNALASRGKYGFDYWGQGTQVTVSS,high polyreactivity
2,QVQLVESGGGLVQAGGSLRLSCAASGRTFRYYAMGWYRQAPGKERELVAAITSSGDSTYYADSVKGRFTISRDNAKNTVYLQMNSLKPEDTAVYYCAAGQPLFYDAEYGYWGQGTQVNVSS,low polyreactivity
3,QVQLVESGGGLVQAGGSLRLSCAASGRTFRYYAMGWYRQAPGKERELVAAITSVGGTYYADSVKGRFTISRDNAKNTVYLQMNSLKPEDTAVYYCAVTSYKYRKYDYWGQGTQVTVSS,high polyreactivity
4,QVQLVESGGGLVQAGGSLRLSCAASGRTFRYYAMGWYRQAPGKESEFVARISSSGSSTYSADSVKGRFTISRDNAKNTVYLQMNSLKPEDTAVYYCAKTVLPYGGSNGLKWYYYWGQGTQVTVSS,high polyreactivity
5,QVQLVESGGGLVQAGGSLRLSCAASGRTFRYYAMGWYRQAPGTERELVATITGSGGSTYYADSVKGRFTISRDNAKNSVYLQMNSLKPEDTAVYYCNARKVRYPYRWYDYWGQGTQVTVSS,high polyreactivity
6,QVQLVESGGGLVQAGGSLRLSCAASGRTFRYYAMGWYRQPPGKERELVATITGSGGSTYYADSVKGRFTISRDNAKNTVYVQMNSLKPEDTAVYDCNARKVRYPYRWYDYWGQGTQVTVSS,high polyreactivity
7,QVQLVESGGGLVQAGGSLRLSCAASGRTFRYYAMGWYRQTPGKERELVATISKSGGSTYYADSVKGRFTISRDNAKNTVYLQMNSLKPEDTAVYYCATSKSYSAFDYWGQGTQVTVSS,high polyreactivity
8,QVQLVESGGGLVQAGGSLRLSCAASGRTFRYYVMGWYRQAPGKERELVAAITYSGGGTYYADSVKGRFTISRDNAKNTVYLQMNSLKPEDTAVYYCAAARTYQYDKYYYWGQGTQVTVSS,high polyreactivity
9,QVQLVESGGGLVQAGGSLRLSCAASGRTFSAYAMGWYRQAPGKERELVAAISRSGGRTYYADSVKGRFTISRDNAKNTVYLEMNSLKPEDTAVYYCNARNLRDNQCTYDYWGQGTQVTVSS,high polyreactivity
10,QVQLVESGGGLVQAGGSLRLSCAASGRTFSAYAMGWYRQAPGKERELVAAITLSVGSTYYADSVKGRFTISRDNAKNTVYLQMNSLKPEDTAVYYCNKYKKGEGGITIVRFDYWGQGTQVTVSS,low polyreactivity
11,QVQLVESGGGLVQAGGSLRLSCAASGRTFSAYAMGWYRQAPGKERELVARITSVDSTNYADSVKGRFTISRDNAKNTVYLQMNSLKPEDTAVYYCNATFGYPCVDYDDYWGQGTQGTVSS,low polyreactivity
12,QVQLVESGGGLVQAGGSLRLSCAASGRTFSAYARGWYRQAPGKERELVAAISRRGGSTYYADSVKGRFTISRDNAKNTVYLQMNSLKPEDTAVYYCAADVYKQYGYYYWGQGTLVTVSS,high polyreactivity
13,QVQLVESGGGLVQAGGSLRLSCAASGRTFSAYTMGWYRQAPGKERELVAAISRRGGSTYYADSVKGRFTISRDNAKNTVYLQMNSLKPEDTAVYYCATKSQYDYDYWGHGTQVTVSS,high polyreactivity
14,QVQLVESGGGLVQAGGSLRLSCAASGRTFSEYAMGWYRQAPGKERELVAAITRSGGGTYYADSVKGRFTISRDNAKNTVYLQMNSLKPEDTAVYYCATQSFSPYDYTDEYWGQGTQVTVSS,high polyreactivity
15,QVQLVESGGGLVQAGGSLRLSCAASGRTFSFYAMGWYRPAPGKERELVAAISSGTRTYYADSVKGRFTISRDNAKNTFYLQMNSLKPEDTAVYYCAARPKWTASWYYYWGQGTQVTVSS,high polyreactivity
16,QVQLVESGGGLVQAGGSLRLSCAASGRTFSGYAMGWYRQAPGKEREFVAVITYSGGSTYYADSVKGRFTMSRVNAKNTVYLQMNSLKPEDTAVYYCNADYVIFYQLVDFDYWGQGTQVTVSS,low polyreactivity
17,QVQLVESGGGLVQAGGSLRLSCAASGRTFSINAMGWYSQAPGKERELVAAISYTGGSTYYADSVKGRFTISRDNAKNTVYLQMNSLKPEDTAVYYCAASSSRTYYGRYYYWGQGTQVTVSS,high polyreactivity
18,QVQLVESGGGLVQAGGSLRLSCAASGRTFSIYAMGWYRQAPGKERELVAAISNGGRTKYADSVKGRFTISRDNAKNTVYLQMNSLKPEDTAVYYCAASRPRPPSSRRMDYWGQGTQVTVSS,high polyreactivity
19,QVQLVESGGGLVQAGGSLRLSCAASGRTFSIYTMGWYRQAPGKERELVASIRRSSGSTYYADSVKGRFTISRDNAKNTVYLQMNSLKPEDTAVYYCAADRIRLDSRKFDYWGQGTQVTVSS,low polyreactivity
20,QVQLVESGGGLVQAGGSLRLSCAASGRTFSKYVMGWYRQAPGKERELVATITSGGSTYYADSVKGRFTISRDNAKNTVYLQMNSLKPEDTAVYYCAARIWYYNYWGQGTQVTVSS,high polyreactivity
21,QVQLVESGGGLVQAGGSLRLSCAASGRTFSLNAMGWYRPAPGKEREFVAAISSTGGSTYYADSVKGRFTISRDNAKNTVYLQMNSLKPEDTAVYYCAKRSVYRTAQGRYSVAYDYWGQGTQVTVSS,high polyreactivity
